Laboratory results published in the supplement of paper PMC5998384.

Columns and labels:
HeLa Kyoto [1] = test: melting temperature (median over replicates), in situ; higher = more thermally stable
HeLa Kyoto [2] = test: solubility in G1/S (NP-40 vs SDS abundance) (log2 ratio); higher = more soluble; conditions: cell cycle stage: G1/S
HeLa Kyoto [3] = test: thermal stability score vs G1/S (z-score of summed log2 fold changes over temperatures); higher = more thermally stable than in G1/S
HeLa Kyoto [4] = test: solubility change mitosis vs G1/S (difference of NP-40 vs SDS log2 ratios) (log2 ratio difference); higher = more soluble in mitosis
[5] = cell cycle stage: early G1 (4.5 h after nocodazole release)
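For melting temperature (median over replicates), in situ in this document: HeLa Kyoto cells synchronized by double thymidine or nocodazole block, proteins quantified by TMT10plex mass spectrometry, three independent biological replicates.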
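For solubility change mitosis vs G1/S (difference of NP-40 vs SDS log2 ratios) in this document: synchronized HeLa Kyoto cells (double thymidine block for G1/S, nocodazole release for mitosis), protein amounts in NP-40 versus SDS lysates quantified by mass spectrometry, three biological replicates.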
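For solubility in G1/S (NP-40 vs SDS abundance) in this document: HeLa Kyoto cells arrested at G1/S by double thymidine block, proteins quantified by TMT10plex mass spectrometry in mild NP-40 versus SDS extracts, three biological replicates.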
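For thermal stability score vs G1/S (z-score of summed log2 fold changes over temperatures) in this document: synchronized HeLa Kyoto cells, proteins quantified by TMT10plex mass spectrometry, three biological replicates, mitosis taken 0.5 h after nocodazole release, G1/S directly after double thymidine block.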

Row | Sequence | melting temperature (HeLa Kyoto [1]; cell cycle stage: G1/S) | melting temperature (HeLa Kyoto [1]; cell cycle stage: mitosis) | solubility in G1/S (log2) (HeLa Kyoto [2]) | thermal stability score (HeLa Kyoto [3]; [5]) | thermal stability score (HeLa Kyoto [3]; cell cycle stage: mitosis) | solubility change mitosis (log2) (HeLa Kyoto [4])
1 | MYDNMSTMVYIKEDKLEKLTQDEIISKTKQVIQGLEALKNEHNSILQSLLETLKCLKKDDESNLVEEKSNMIRKSLEMLELGLSEAQVMMALSNHLNAVESEKQKLRAQVRRLCQENQWLRDELANTQQKLQKSEQSVAQLEEEKKHLEFMNQLKKYDDDISPSEDKDTDSTKEPLDDLFPNDEDDPGQGIQQQHSSAAAAAQQGGYEIPARLRTLHNLVIQYASQGRYEVAVPLCKQALEDLEKTSGHDHPDVATMLNILALVYRDQNKYKDAANLLNDALAIREKTLGKDHPAVAATLNNLAVLYGKRGKYKEAEPLCKRALEIREKVLGKDHPDVAKQLNNLALLCQNQGKYEEVEYYYQRALEIYQTKLGPDDPNVAKTKNNLASCYLKQGKFKQAETLYKEILTRAHEREFGSVDDENKPIWMHAEEREECKGKQKDGTSFGEYGGWYKACKVDSPTVTTTLKNLGALYRRQGKFEAAETLEEAAMRSRKQGLDNVHKQRVAEVLNDPENMEKRRSRESLNVDVVKYESGPDGGEEVSMSVEWNGGVSGRASFCGKRQQQQWPGRRHR [KLC1] | 51.6 °C | 51.4 °C | 0.299 | 0.136 | 0.172 | -0.175
2 | MEPDIIRMYSSSPPPLDNGAEDDDDDEFGEFGGFSEVSPSGVGFVDFDTPDYTRPKEEFVPSNHFMPIHEFSENVDSLTSFKSIKNGNDKDITAELSAPVKGQSDVLLSTTSKEIISSEMLATSIDGMERPGNLNKVVEQRQNVGTLESFSPGDFRTNMNVVHQNKQLESCNGEKPPCLEILTNGFAVLETVNPQGTDDLDNVADSKGRKPLSTHSTEYNLDSVPSPAEEFADFATFSKKERIQLEEIECAVLNDREALTIRENNKINRVNELNSVKEVALGRSLDNKGDTDGEDQVCVSEISIVTNRGFSVEKQGLPTLQQDEFLQSGVQSKAWSLVDSADNSEAIRREQCKTEEKLDLLTSKCAHLCMDSVKTSDDEVGSPKEESRKFTNFQSPNIDPTEENDLDDSLSVKNGDSSNDFVTCNDINEDDFGDFGDFGSASGSTPPFVTGTQDSMSDATFEESSEHFPHFSEPGDDFGEFGDINAVSCQEETILTKSDLKQTSDNLSEECQLARKSSGTGTEPVAKLKNGQEGEIGHFDSVPNIQDDCNGFQDSDDFADFSSAGPSQVVDWNAFEDEQKDSCSWAAFGDQQATESHHRKEAWQSHRTDENIDTPGTPKTHSVPSATSKGAVASGHLQESATSVQTALLNRLERIFEACFPSILVPDAEEEVTSLKHLLETSTLPIKTREALPESGELLDVWTELQDIHDAHGLRYQWGGSHSNKKLLSSLGIDTRNILFTGNKKQPVIVPMYAAGLGMLEPTKEPLKPLSAAEKIASIGQTATMSPDMNTCTSDQFQESLPPVQFDWSSSGLTNPLDASGGSTLLNLDFFGPVDDSSSSSSTTIPGVDPELYELTTSKLEISTSSLKVTDAFARLMSTVEKTSTSTRKPKREEHLSEEAIKVIAGLPDLTFMHAKVLMFPATLTPSTSSQEKADG [AFTPH] | 52 °C | 51.9 °C | -0.151 | -0.487 | -1.23 | -0.029
